Patent US20220177577A1

B1: CK6-SET0207 (antibody, V domains shown)
VH: QVQLVQSGAAVKKPGESLKISCKGSGYRFTSYWIGWVRQMPGKGLEWMGIIYPGDSDTRYSPSFQGQVTISAGKSISTAYLQWSSLKASDTAMYYCARHGRGYNGYEGAFDIWGQGTMVTVSS
VL: AIQLTQSPSSLSASVGDRVTITCRASQGISSALAWYQQKPGKAPKLLIYDASSLESGVPSRFSGSGSGTDFTLTISSLQPEDFATYYCQQFNSYPLTFGGGTKVEIK
modifications: here or on the partner: SET0207 payload ('Non-cleavable natural') conjugated, Fc modification D265C H435A, DAR 2.0
B2: CK6 S239C-PBD (antibody, V domains shown)
VH: B1 VH
VL: B1 VL
modifications: here or on the partner: PBD (DNA cross linker) conjugated, Fc modification S239C, DAR 1.7
B3: CK6 S239C-PNU (antibody, V domains shown)
VH: B1 VH
VL: B1 VL
modifications: here or on the partner: PNU (DNA topoisomerase I/II inhibitor) conjugated, Fc modification S239C (printed S2390 in Table 4), DAR 1.4
B4: CK6 S239C-DM (antibody, V domains shown)
VH: B1 VH
VL: B1 VL
modifications: here or on the partner: duocarmycin (DM) conjugated, Fc modification S239C, DAR 1.65
B5: CK6 S239C-D4 (antibody, V domains shown)
VH: B1 VH
VL: B1 VL
modifications: here or on the partner: calicheamicin (D4) conjugated, Fc modification S239C, DAR 1.72

Each binder was assayed against CD117 on Kasumi-1 cells and on primary human CD34+ bone marrow cells (human), P10721 (assay: cell-based or functional assay).
Chain of CD117 on Kasumi-1 cells and on primary human CD34+ bone marrow cells (human), P10721 (P10721 26-976): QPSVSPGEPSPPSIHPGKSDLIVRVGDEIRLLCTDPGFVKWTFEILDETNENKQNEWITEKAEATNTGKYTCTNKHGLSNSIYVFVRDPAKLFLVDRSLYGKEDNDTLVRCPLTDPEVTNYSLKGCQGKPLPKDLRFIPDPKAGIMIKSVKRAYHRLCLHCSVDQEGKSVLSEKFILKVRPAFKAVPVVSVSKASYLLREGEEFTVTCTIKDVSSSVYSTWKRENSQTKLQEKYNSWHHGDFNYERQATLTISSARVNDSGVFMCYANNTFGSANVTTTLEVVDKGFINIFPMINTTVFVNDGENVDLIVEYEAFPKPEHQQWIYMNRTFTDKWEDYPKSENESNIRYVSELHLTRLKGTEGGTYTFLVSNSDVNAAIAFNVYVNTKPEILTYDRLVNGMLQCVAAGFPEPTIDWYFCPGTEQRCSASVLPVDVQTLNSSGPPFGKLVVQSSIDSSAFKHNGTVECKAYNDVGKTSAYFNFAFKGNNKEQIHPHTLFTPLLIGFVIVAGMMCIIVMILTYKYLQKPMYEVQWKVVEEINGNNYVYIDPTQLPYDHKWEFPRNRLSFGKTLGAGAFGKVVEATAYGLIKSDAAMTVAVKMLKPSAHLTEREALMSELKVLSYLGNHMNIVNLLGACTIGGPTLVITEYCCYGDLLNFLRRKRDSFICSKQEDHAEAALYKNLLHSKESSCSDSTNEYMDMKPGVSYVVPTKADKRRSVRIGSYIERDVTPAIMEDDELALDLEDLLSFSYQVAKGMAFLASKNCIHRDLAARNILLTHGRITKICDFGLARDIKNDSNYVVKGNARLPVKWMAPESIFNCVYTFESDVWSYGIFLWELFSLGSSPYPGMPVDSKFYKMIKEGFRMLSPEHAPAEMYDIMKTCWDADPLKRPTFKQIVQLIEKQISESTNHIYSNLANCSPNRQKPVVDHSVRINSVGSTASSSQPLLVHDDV
B1 was tested, and the % Efficacy, in vitro Kasumi cell killing assay was 0% and the % Efficacy, in vitro hCD34 cell killing assay was 9.18%. In the case of B2, the % Efficacy, in vitro Kasumi cell killing assay is reported as 60.7% and the % Efficacy, in vitro hCD34 cell killing assay is reported as 97.3%. For B3, the % Efficacy, in vitro Kasumi cell killing assay was 85.7% and the % Efficacy, in vitro hCD34 cell killing assay was 74.4%. Binder B4 has a % Efficacy, in vitro Kasumi cell killing assay of 0% and a % Efficacy, in vitro hCD34 cell killing assay of 66.2%. For B5, the % Efficacy, in vitro Kasumi cell killing assay was 0% and the % Efficacy, in vitro hCD34 cell killing assay was 52.3%.
